# From the supplement of paper PMC9170038
# Assays:
# MS2 coat protein [1] = experiment: apparent KD of MS2 coat protein, switch ON state; designed switch direction (-1 OFF switch, 1 ON switch): 1; higher = weaker reporter binding; conditions: FMN input: 0 or 200 uM; Eterna round: R93 (includes R88 designs)
# Summary of the method: (§1)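 Apparent KD was obtained for each design as the median of normalised binding-curve fits over its clusters. RNA switches transcribed on-chip from Illumina sequencing clusters were titrated with SNAP-549-labelled MS2 coat protein (twofold steps, 0.7 or 1.5 nM to 3 µM) in 100 mM Tris-HCl pH 7.5, 80 mM KCl, 4 mM MgCl2, without or with constant ligand.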
# MS2 coat protein [2] = experiment: apparent KD of MS2 coat protein, switch OFF state (with FMN for OFF switches, without FMN for ON switches); designed switch direction (-1 OFF switch, 1 ON switch): 1; higher = weaker reporter binding; conditions: FMN input: 0 or 200 uM; Eterna round: R93 (includes R88 designs)
# Summary of the method: as §1
Sequence,apparent KD of MS2 coat protein (MS2 coat protein [1]) [nM],apparent KD of MS2 coat protein (MS2 coat protein [2]) [nM]
AAAAAGAACACGCAGGAUAUGCAAAGAAACACAUGAGGAUCACCCAUGUCCAAAAACCCAAAAACGCAGAAGGGCGAAAAACCCA [Default title],25.6,28.3
AAAACACAUGAGGAUCACCCAUGUGAAAACAUGAGAGGAUAUGCAUGGAAAACAUGCUAUGCAGAAGGCUCAUGUG [SS1 - 8],16.5,23.2
AAAAGACAUGAGGAUCACCCAUGUAAAGACAUGAGAGGAUAUGCAUGGAAAACAUGCUGUGCAGAAGGCUCAUGUC [SS1 - 17],18.1,22.6
AAAAGACAUGAGGAUCACCCAUGUCAAGACAUAGGAGGAUAUGUCAUGAAAAAAGACUUGACAGAAGGCCUUUGUC [SS1 - 51],16.7,17.4
AAAAGACAUGAGGAUCACCCAUGUGAAAACGUAGGAGGAUAUGUCUGGAAAACAGACUGGACAGAAGGCCUGUGUC [SS1 - 33],24.4,36
AAAAGACAUGAGGAUCACCCAUGUGAAAACGUGCGAGGAUAUGUAUGGAAACUAUACUGUACAGAAGGCGCAUGUC [SS1 - 81],19.9,24.3
"AAACCACAUGAGGAUCACCCAUGUAAAAAUAUGGGAGGAUAUGCGAAAAGAAACAAAGAAGCAGAAGGCCUAAAAA [75%, Ex sub1, 19]",26.3,114
AAAGACAUAGUUCAGGAUAUGGUAAUAGUCACAUGAGGAUCACCCAUGUGCAUUUAUAUGCGCGAUCAGAAGGGAGGUAAAAAAA [SameState2 Malc#16],17.5,21.9
AAAUAAAGAUACUAGGAUAUCCCGUGAGGUACAUGAGGAUCACCCAUGUGUAACGAACUCCCGCGGGAGAAGGAGUUGCACACGA [Inanuserra],38,52.4
AAAUAAAGGACUGAGGAUAUACCACAUGAAACAUGAGGAUCACCCAUGUUGAAAAACAGAGGGUGGUAGAAGGCAGUCCACAAAC [Same State 2.5d ( so lets mod hyphema)],12.5,23.3
"AAAUAAAUGACUAAGGAUAUAUCAAAAGAAACAUGAGGAUCACCCAUGUAAUAAUAAAAAGGGUGAUAGAAGGUAGUCAACAAAC [74%, More Paria 4]",24.6,115
AAAUAAAUGACUGAGGAUAUAUCGAUGAGUACAUGAGGAUCACCCAUGUGAUAAUAAAAAGGGUGGUAGAAGGUAGUCAACAAAC [Mod 14 of Pariah 4 by Hyphema in Round 1],185,150
AAAUAACAUGAGGAUCACCCAUGUUACGACGUUACAGGAUAUGUGGGUGAAAAUAGCAUGACAGAAGGGUACCGUA [SameState1 Malc#37],68.5,60.3
AACAAUCUAUCUGAGGAUAUCAUGACAAAGACAUGAGGAUCACCCAUGUCCAGGAAAACUGGUUAUGAGAAGGCAGAUAGAUUGA [SS2: 1112],9.7,13.2
AACAAUCUAUCUGAGGAUAUCAUGUCAAAGACAUGAGGAUCACCCAUGUGUAGGAAAACUACAUAUGAGAAGGCAGAUAGAUUGA [SS2 :P - 598],610,103
AACAAUCUAUCUGAGGAUAUCAUGUGAAAGACAUGAGGAUCACCCAUGUUGCAGGAAACUGCUCAUGAGAAGGCAGAUAGAUUGA [SS2: 1126],11.5,28.3
AACAGGAAGAGAGAGGAUAUCCAAAGGAAAACAUGAGGAUCACCCAUGUAAAAGGUAGGAAAUUGGGAGAAGGCUCAAGAGAGAG [salish99-ss2-089],24.8,47.3
AAGAAACAUGAGGAUCACCCAUGUAAGAUAAACACAGGAUAUGCGAAAAGAAACAAAUAAGCAGAAGGGUGAAGAA [Mat - Same State 1 - Tesla mod - 64],16.3,23
AAGAAACAUGAGGAUCACCCAUGUAAGAUAAACACAGGAUAUGCGAAAAUAAACAAAUAAGCAGAAGGGUGAAAAG [Mat - Same State 1 - Tesla mod - 76],15.2,19.3

Sequence,apparent KD of MS2 coat protein (MS2 coat protein [1]) [nM],apparent KD of MS2 coat protein (MS2 coat protein [2]) [nM]
AAGAAACAUGAGGAUCACCCAUGUAGAAAUAUGGGAGGAUAUACAAAGACGAAAGUCAAAGUAGAAGGCCUGAAAG [Mat - Same State 1 - Eli mod - 84],38.5,72.4
AAGAAACAUGAGGAUCACCCAUGUGAUAAUAUGGGAGGAUAUACAAAGACGAAAGACGAAGUAGAAGGCCUAUGAA [Garnet 44],49,124
AAGAAACAUGAGGAUCACCCAUGUGAUAAUAUGGGAGGAUAUACGAAGACGAAAGACGAAGUAGAAGGCCUAUGAA [Garnet 45],46.9,83.3
AAUAACAAAAGAAAGGAUAUAUAAACAGGAACAUGAGGAUCACCCAUGUGCCGCCAAGGCGGAUAAUAGAAGGUUCACAUGCAUA [Default title],47,25.3
AAUAAUUAUACGAAGGAUAUCGGUAUUAAGACAUGAGGAUCACCCAUGUAAUAUGGUUAUAUAAACGAGAAGGUCGAGGGUGAAA [JR_SS002_Sub008],38.6,36.9
AAUAAUUAUAUGGAGGAUAUCGGUAAUAAGACAUGAGGAUCACCCAUGUAAUAAGGUUAAAUAAACGAGAAGGCCAAGGGUGAAA [JR_SS002_Sub005],59.7,234
AAUAGACAUGAGGAUCACCCAUGUGUAUAUGGGAGAGGAUAUACGGGACACAAGGGCGGAGUAGAAGGCUCGAGAC [Same Satate 1],68.2,83.9
AAUAUACAUGAGGAUCACCCAUGUUAGGUGGGACUAGGAUAUCAAAAGAAAGAGUAAGAAUGAGAAGGAGUAGAAA [JR_SS001_Sub016],145,240
AAUAUACAUGAGGAUCACCCAUGUUUUAAUAGCUGAGGAUAUACGGGUGAAAACAGCAUAGUAGAAGGCAGGUAUA [SameState1 Malc#7],27.6,86.7
AAUAUAUUAUUUAAGGAUAUCAUAGGAAAAACAUGAGGAUCACCCAUGUGGGAAACCUGGUCGGGUGAGAAGGUGGAUAAUAUAU [Samwise Clockwise 34 - Jieux - Same State 2],93.7,317
AGAAAACAUGAGGAUCACCCAUGUAGAAAUAUGGGAGGAUAUACAAAGACGAAAGUCAGAGUAGAAGGCCUAAAAA [salish99-SS1-085],14.6,77.3
AGAAAACAUGAGGAUCACCCAUGUAGAAAUAUGGGAGGAUAUACGAAGACGAAAGUCAAAGUAGAAGGCCUAAAAG [Mat - Same State 1 - Eli mod - D102],22,69.8
AGAAAUAAAACGCAGGAUAUCCAAAAGAAAACAUGAGGAUCACCCAUGUAAAAGAAAAUAAAAUGGGAGAAGGGCGAAAUAAAGA [Mat - Same State 2 - Eli mod - D92],19.3,20.9
AGAAAUAAAAGACAGGAUAUCCUUAAGAAAACAUGAGGAUCACCCAUGUAAAAGAAAAUAAAAAGGGAGAAGGGUCAAAAUAAGA [Mat - Same State 2 - JL mod - D80],18,26.2
AGAAAUAAAAGAGAGGAUAUCCAAAAGAAAACAUGAGGAUCACCCAUGUAAAAGAAAAUAAAAUGGGAGAAGGCUCAAUAAAAGA [Modifying Jieux],17.9,42
AGAAAUAAAAGAGAGGAUAUCCAAAAGAAAACAUGAGGAUCACCCAUGUAAAAGAAAAUAAAAUGGGAGAAGGCUCGAAAUAAGA [Topaz 21],18.3,107
AGAAAUAAAAGAGAGGAUAUCCAAAAGAAAACAUGAGGAUCACCCAUGUAAAAGAAAAUAAAGUGGGAGAAGGCUCAAAAUAAGA [Jieux modified],16.4,129
AGAAAUAAAAGGCAGGAUAUCCAAAAGAAAACAUGAGGAUCACCCAUGUAAAAGAAAAAAAAAUGGGAGAAGGGCCAAAUAAAGA [Mat - Same State 2 - Eli mod - D90],20.7,21.4
AGAAAUAAAAGUCAGGAUAUGGGUAAGAAAACAUGAGGAUCACCCAUGUAAAAGAAAAUAAAAAACCAGAAGGGACAAAAUAAAG [Reversing G segment in JL's winner (80%) Variant 4],30.1,88.6
